The record followed here is US20140370022A1 (SAMSUNG LIFE PUBLIC WELFARE FOUNDATION, published 2014).

The Kd is a measure of binding affinity in units of concentration. Read a low Kd as a tighter complex. Broadly, the koff is a measure of how fast the partners let go of each other. Read a high koff as fast dissociation. For orientation: kon means the rate constant with which the complex forms. Low readings indicate slower complex formation, high ones faster complex formation. By EC50 (read off the curve) is commonly meant the concentration needed to bring the measured effect to its halfway point.

For assay [1], the target named is T1, mouse c-Met-Fc protein (mouse c-Met extracellular domain + Fc) (mouse, UniProt P16056 25-931).
T1 construct: extracellular domain; not shown: Fc region of IgG
The assay can be described thus: ELISA, periplasmic scFv-pIII extract on coated mouse c-Met-Fc, anti-HA-HRP, OD450 as ratio to control coat (BSA, IgG). As to the method: After a total of six rounds of panning with mouse/human c-Met were finished, the phage particles collected from the final round of panning were confirmed as colonies in the medium through infection of host cells. These colonies were taken and inoculated in a 96 well plate containing 200 μl of SB/ampicillin media and then cultured (37° C., within 3 hours). After that, for the induction of scFv-pIII protein expression, 1 mM final concentration IPTG was added to each well, followed by culturing overnight at 30° C. After that, the cultured plate was centrifuged to discard the supernatant. Then, for the collection of periplasmic fractions from the cultured cells in each well, the culture plate was treated with 40 μl of TES solution (20% w/v sucrose, 50 mM Tris, 1 mM EDTA, pH 8.0) maintained at 4° C., and then kept to stand at 4° C. for 30 minutes, so that the cells were lysed. After that, the cells were treated with 60 μl of 0.2×TES solution, and then kept to stand for 30 minutes. Finally, the plate was centrifuged and the supernatant was collected, thereby producing scFv-pIII protein on a small scale.
At the same time, a 96 well plate coated with human or mouse c-Met-Fc protein was prepared, and then 25 μl of aliquot was taken from the collected periplasmic fractions and added to each well, followed by binding for 1 hour. Then, after three or four times of washing procedures were performed using TBST, anti-HA-HRP antibody was added, followed by binding for 1 hour. The plate was again washed, followed by induction of a color development reaction (TMB substrate), and then the values of color development were measured at O.D. 450 nm. […] Since antibody in which c-Met extracellular domain binds to Fc region of IgG was used at the time of the panning, commercialized antibody (Erbitux) or BSA protein was used as a control group in order to exclude the phage particles that bind to Fc region.
(In general: An ELISA detects its analyte on a solid surface through an enzyme-linked reagent.)

The target in the next assay is T2, Control (BSA) (Bos taurus, UniProt P02769).
T2 construct: coated as control protein; also called BSA protein
Briefly: ELISA, 5 ug/ml scFv on coated Control (BSA), anti-HA-HRP. The procedure: (§1) By using the produced scFv protein, the binding affinity to human/mouse c-Met extracellular domain+Fc protein was confirmed through ELISA. Human/mouse c-Met coated on a 96-well plate were treated with 5 μg/ml of scFv proteins (1F12, 2A01, 2C03, and 2D05), followed by binding at room temperature for 1 hour. After that, the plate was washed three times with 0.1% TBST solution, and then treated with anti-HA-HRP antibody for 1 hour, to detect the scFv proteins that bind to c-Met. After that, the plate was washed three times, and then treated with 10 μl of TMB substrate, followed by standing for 5 minutes. The reaction was stopped by using sulfuric acid solution, and then the absorbance was determined by ELISA reader. As a result, it was verified that each scFv protein had significant binding affinity to human and mouse c-Met proteins as compared with the control group (IgG, BSA) (FIG. 5A). In addition, after the cells were treated with 500 ng/ml of each scFv protein using human c-Met protein to which Fc region was not bound, the same ELISA assay was conducted.

The target in assay [2] is c-Met protein (species and construct not stated). The assay can be described thus: SPR, Biacore T100, c-Met amine-coupled on CM5 chip, scFv as analyte. From the text:
For the confirmation of more accurate binding affinity (coupling constant), the binding affinity of respective clones to c-Met was verified through surface plasmon resonance analysis. Respective antibody fragments were expressed in the host E. coli, followed by purification, and then dialyzed with PBS solution. Biacore T100 (GE healthcare) was used for the analysis. The c-Met protein was fixed to a dextran medium through an amine coupling reaction in the CM5 sensor chip. […] Based on these values, kinetic analysis was conducted through the BIA-evaluation program. As a result, the KD values of the 1F12 and 2A01 clones were measured to be 6⁻⁹×10⁻⁸ M and the Kd value of 2C03 was verified to be 10⁻⁷ M (Table 4).

In assay [3] the target is T3, human c-Met-Fc protein (human c-Met extracellular domain + Fc) (human, UniProt P08581 25-932).
T3 construct: extracellular domain; also called c-Met extracellular domain+Fc protein; not shown: Fc region of IgG
Briefly: ELISA, scFv titrated 2-fold from 500 ng/ml on coated human c-Met, anti-HA-HRP, no HGF. As to the method: as §1, with “Human/mouse c-Met coated on a 96-well plate were treated with 5 μg/ml of scFv proteins (1F12, 2A01, 2C03, and 2D05), followed by binding at room temperature for 1 hour.” left out
For the verification of whether the selected scFv proteins have competitive binding affinity with the hepatocyte growth factor, which is the ligand of c-Met, the ligand competitive ELISA experiment was conducted. As in examples 2 and 4, the coated human c-Met was prepared, and respective wells were treated with samples in which each scFv protein was diluted at a 2-fold dilution from 500 ng/ml to about 1 ng/ml. After the treatment, the experiment procedure was conducted as in Example 4.

T1 sequence (P16056 25-931): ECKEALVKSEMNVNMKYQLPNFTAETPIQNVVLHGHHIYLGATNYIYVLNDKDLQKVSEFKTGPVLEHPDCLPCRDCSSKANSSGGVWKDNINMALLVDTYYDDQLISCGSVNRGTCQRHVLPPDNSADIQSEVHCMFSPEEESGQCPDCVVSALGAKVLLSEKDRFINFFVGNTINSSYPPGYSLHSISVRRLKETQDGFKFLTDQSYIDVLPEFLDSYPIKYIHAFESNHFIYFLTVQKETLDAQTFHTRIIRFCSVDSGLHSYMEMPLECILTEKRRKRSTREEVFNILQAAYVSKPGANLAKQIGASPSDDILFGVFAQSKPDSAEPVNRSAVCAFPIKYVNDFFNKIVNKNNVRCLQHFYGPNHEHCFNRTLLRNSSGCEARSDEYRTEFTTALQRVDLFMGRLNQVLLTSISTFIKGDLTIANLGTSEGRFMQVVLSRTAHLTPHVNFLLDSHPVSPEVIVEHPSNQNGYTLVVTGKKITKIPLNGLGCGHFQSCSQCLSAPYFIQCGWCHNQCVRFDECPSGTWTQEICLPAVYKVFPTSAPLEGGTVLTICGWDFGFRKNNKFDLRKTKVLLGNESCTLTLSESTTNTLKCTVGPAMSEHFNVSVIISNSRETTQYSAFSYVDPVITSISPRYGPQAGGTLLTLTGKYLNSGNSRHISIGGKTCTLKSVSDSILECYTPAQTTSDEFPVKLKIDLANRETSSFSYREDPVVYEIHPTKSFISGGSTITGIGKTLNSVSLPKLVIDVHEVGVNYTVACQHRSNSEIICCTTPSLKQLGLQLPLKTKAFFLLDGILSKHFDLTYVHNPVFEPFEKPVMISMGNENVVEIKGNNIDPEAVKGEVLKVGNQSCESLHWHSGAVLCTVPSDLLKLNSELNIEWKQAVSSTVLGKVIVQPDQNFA
T2 sequence (P02769 25-607 limits assumed): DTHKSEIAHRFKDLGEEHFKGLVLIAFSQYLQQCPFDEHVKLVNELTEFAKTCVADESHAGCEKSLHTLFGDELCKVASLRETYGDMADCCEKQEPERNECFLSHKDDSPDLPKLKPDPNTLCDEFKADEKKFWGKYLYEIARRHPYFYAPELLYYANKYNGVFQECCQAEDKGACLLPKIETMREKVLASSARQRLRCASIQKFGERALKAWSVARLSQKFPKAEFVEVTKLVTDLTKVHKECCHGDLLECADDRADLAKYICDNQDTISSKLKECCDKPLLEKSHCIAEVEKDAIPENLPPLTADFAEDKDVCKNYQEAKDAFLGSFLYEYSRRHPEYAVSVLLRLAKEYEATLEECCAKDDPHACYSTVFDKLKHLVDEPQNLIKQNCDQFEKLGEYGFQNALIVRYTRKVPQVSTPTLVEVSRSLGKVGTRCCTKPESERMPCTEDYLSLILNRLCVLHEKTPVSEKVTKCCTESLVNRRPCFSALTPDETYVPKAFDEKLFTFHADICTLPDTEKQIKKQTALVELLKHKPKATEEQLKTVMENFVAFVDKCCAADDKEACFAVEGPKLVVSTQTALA
c-Met protein (species and construct not stated), sequence (P08581 whole entry, the tested form may be a part): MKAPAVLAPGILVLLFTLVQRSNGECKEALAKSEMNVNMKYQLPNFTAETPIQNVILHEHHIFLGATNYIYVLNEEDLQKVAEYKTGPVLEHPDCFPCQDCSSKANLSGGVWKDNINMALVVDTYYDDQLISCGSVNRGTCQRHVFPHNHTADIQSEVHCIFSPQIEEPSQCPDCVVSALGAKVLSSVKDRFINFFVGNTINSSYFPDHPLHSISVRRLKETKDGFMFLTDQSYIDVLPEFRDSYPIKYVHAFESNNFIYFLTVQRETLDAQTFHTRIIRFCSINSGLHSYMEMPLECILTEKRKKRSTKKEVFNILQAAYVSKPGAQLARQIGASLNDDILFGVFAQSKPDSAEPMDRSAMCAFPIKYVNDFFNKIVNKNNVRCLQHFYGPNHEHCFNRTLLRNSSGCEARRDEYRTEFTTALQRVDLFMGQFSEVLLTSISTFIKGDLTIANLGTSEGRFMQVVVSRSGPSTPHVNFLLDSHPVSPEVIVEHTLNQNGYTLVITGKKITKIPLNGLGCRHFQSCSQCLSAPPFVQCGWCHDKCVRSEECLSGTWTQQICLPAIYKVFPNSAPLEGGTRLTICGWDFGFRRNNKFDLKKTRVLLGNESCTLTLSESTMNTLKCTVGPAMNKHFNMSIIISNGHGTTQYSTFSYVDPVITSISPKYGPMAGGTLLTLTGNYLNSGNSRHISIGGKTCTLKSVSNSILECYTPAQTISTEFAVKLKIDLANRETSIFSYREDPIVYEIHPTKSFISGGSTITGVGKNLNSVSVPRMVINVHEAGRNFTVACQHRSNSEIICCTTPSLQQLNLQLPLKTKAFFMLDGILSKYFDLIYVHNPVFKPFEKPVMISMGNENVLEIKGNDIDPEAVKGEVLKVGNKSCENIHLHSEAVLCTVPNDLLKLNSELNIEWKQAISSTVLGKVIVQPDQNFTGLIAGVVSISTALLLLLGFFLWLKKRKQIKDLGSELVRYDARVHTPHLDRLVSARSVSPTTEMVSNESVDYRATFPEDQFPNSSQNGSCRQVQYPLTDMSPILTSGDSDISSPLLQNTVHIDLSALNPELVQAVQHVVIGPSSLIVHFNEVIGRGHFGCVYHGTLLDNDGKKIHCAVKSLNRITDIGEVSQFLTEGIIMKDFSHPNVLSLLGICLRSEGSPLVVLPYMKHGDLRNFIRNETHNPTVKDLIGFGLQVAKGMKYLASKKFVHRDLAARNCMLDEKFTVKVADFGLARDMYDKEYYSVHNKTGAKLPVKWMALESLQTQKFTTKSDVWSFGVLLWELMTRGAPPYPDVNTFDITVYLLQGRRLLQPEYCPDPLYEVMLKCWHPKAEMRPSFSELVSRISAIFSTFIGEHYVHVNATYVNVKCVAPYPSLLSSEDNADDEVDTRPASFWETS
T3 sequence (P08581 25-932): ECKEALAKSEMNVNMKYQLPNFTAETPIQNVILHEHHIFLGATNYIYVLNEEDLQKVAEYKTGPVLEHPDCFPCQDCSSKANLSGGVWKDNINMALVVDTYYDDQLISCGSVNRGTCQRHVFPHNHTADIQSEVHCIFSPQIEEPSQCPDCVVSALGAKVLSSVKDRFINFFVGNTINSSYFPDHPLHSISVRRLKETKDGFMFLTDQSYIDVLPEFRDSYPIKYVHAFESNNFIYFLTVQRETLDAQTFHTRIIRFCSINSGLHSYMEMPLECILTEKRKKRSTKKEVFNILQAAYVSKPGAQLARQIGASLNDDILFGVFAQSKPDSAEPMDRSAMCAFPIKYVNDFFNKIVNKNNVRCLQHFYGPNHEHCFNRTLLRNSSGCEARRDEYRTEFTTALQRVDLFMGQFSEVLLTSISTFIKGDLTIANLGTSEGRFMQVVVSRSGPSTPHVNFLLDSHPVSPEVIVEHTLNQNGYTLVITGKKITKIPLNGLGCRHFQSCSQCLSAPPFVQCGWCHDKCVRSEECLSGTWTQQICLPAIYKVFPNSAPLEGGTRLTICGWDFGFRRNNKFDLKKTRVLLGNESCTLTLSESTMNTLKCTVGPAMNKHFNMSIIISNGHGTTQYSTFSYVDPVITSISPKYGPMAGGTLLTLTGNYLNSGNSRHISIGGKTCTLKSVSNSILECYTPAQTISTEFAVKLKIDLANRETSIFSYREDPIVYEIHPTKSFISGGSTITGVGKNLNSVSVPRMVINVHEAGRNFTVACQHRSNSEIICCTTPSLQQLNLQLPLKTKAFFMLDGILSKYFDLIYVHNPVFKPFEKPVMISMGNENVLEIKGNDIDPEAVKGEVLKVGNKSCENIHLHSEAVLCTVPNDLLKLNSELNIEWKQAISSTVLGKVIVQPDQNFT

B1: 2C03 scFv antibody fragment (scFv)
scFv: EVQLLESGGGLVQPGGSLRLSCAASGFTFSNYAMSWVRQAPGKGLEWVSAISYDSGSIYYADSVKGRFTISRDNSKNTLYLQMNSLRAEDTAVYYCAKAARSCRNWSCSYANGMDVWGQGTLVTVSSGGGGSGGGGSGGGGSQSVLTQPPSASGTPGQRVTISCTGSSSNIGSNYVSWYRQLPGTAPKLLIYSDSNRPSGVPDRFSGSKSGTSASLAISGLRSEDEADYYCGSWDDSLSGYVFGGGTKLTVL
notes: Soluble scFv of about 28 kDa expressed in E. coli TOP10F' and purified over Ni-NTA; also called 2C03 clone; 2CO3
As for B1, the binding result in assay [1] is “binds”. The binding result with Control (BSA) is listed as “no binding (tested: 5 ug/ml)”. Besides, in assay [2], the Kd amounted to 239 nM, the off-rate constant (koff) turned out to be 0.186 s⁻¹ and the kon stood at 776000 M⁻¹ s⁻¹.

B2: 1F12 scFv antibody fragment (scFv)
scFv: EVQLLESGGGLVQPGGSLRLSCAASGFTFSNYAMSWVRQAPGKGLEWVSGISYSGGSTYYADSVKGRFTISRDNSKNTLYLQMNSLRAEDTAVYYCAKASRSCQRPACSYANGMDVWGQGTLVTVSSGGGGSGGGGSGGGGSQSVLTQPPSASGTPGQRVTISCTGSSSNIGNNYVTWYQQLPGTAPKLLIYYNNHRPSGVPDRFSGSKSGTSASLAISGLQSEDEADYYCGSWDYSLSAYVFGGGTKLTVL
notes: Soluble scFv of about 28 kDa expressed in E. coli TOP10F' and purified over Ni-NTA; also called 1F12 clone
Take B2: the binding result in assay [1] is recorded as “binds”; with Control (BSA), “no binding (tested: 5 ug/ml)”. The concentration for a half-maximal effect (EC50 (read off the curve)) in assay [3] was roughly 0.04 µg/mL. Moreover, the Kd in assay [2] came to 93.3 nM.

B3: 2A01 scFv antibody fragment (scFv)
scFv: EVQLLESGGGLVQTGGSLRLSCAASGFTFSSYDMSWVRRAPGKGLEWVSWISHGGSSISYADSVKGRFTISRDNSKNTLYLQMNSLRAEDTAVYYCAKDAYPIRQETFDYWGQGTLVTVSSGGGGSGGGGSGGGGSQSVLTQPPSASGTPGQRVTISCSGSSSNIGNNDVSWYQQLPGTAPKLLIYPDSQRPSGVPDRFSGSKSGTSASLAISGLRSEDEADYYCASWDSSLSGYVFGGGTKLTVL
notes: Soluble scFv of about 28 kDa expressed in E. coli TOP10F' and purified over Ni-NTA; also called 2A01 clone; 2A1
For B3, the binding result in assay [1] is “binds”. In addition, the binding result with Control (BSA) is listed as “no binding (tested: 5 ug/ml)”. In assay [2], this molecule displayed a dissociation constant Kd of 66 nM, a koff of 0.153 s⁻¹ and a kon of 2.32e+06 M⁻¹ s⁻¹.
